This is an account of results in patent publication US20230265179A1 (TWIST BIOSCIENCE, published 2023).

Sequences and labels used below:
T1: CD40L (UniProt P29965 1-261, limits assumed)
T1 construct: whole, on cells; also called cytokine over-expressing Expi293 cells (CD40L)
T1 sequence (looked up): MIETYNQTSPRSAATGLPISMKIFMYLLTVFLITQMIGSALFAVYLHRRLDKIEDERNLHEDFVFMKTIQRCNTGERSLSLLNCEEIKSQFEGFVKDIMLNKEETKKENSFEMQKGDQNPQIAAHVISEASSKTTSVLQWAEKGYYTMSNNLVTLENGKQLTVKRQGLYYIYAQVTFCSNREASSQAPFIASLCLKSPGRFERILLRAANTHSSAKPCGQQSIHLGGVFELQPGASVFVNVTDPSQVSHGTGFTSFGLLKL

T2: IL1RL2 over-expressed on Expi293 cells (UniProt Q9HB29 20-575, limits assumed)
T2 construct: whole, on cells; Target of the flow cytometry assay; MFI ratio is over-expressing cells over parent cells
T2 sequence (looked up): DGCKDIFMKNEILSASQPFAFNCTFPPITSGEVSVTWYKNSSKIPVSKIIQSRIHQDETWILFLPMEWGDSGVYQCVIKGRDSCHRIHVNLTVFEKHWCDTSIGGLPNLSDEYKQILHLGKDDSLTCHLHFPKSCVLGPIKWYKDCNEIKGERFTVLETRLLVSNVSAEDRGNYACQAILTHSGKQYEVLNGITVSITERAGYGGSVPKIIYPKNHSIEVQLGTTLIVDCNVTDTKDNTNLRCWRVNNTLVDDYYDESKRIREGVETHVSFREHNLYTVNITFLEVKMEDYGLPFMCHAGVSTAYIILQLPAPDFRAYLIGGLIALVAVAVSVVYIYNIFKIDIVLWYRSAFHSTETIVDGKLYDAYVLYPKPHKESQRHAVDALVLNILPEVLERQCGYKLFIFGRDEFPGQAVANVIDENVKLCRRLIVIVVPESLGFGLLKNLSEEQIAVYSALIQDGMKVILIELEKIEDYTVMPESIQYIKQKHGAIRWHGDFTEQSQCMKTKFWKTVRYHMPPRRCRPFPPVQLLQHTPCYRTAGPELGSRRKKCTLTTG

B1: CD40L-205 (antibody, V domains shown)
VH: EVQLLESGGGLVQPGGSLRLSCAASGFDFSDYEMSWVRQAPGKGLEWVSSITSEGGSTYYADSVKGRFTISRDNSKNTLYLQMNSLRAEDTAVYYCAKPDVLFDYWGQGTLVTVSS
VL: DIQMTQSPSSLSASVGDRVTITCSGDNLGDKYVHWYQQKPGKAPKLLIYGKNIRPSGVPSRFSGSGSGTDFTLTISSLQPEDFANYYCQQTYSIPYTFGQGTKVEIK
B2: CD40L-207 (antibody, V domains shown)
VH: B1 VH with D28T, S30E, Y32T, S35D, V101K, L102D
VL: DIQMTQSPSSLSASVGDRVTITCRASQRISSFLNWYQQKPGKAPKLLIYDASNLQSGVPSRFSGSGSGTDFTLTISSLQPEDFATYYCQPSFYFPYAFGQGTKVEIK
B3: IL1RL2-184 (antibody, V domains shown)
VH: EVQLLESGGGLVQPGGSLRLSCAASGFTFSDYDMSWVRQAPGKGLEWVSSISPSGGWTEYADSVKGRFTISRDNSKNTLYLQMNSLRAEDTAVYYCARHDYSNYPYFDYWGQGTLVTVSS
VL: DIQMTQSPSSLSASVGDRVTITCRASQTIGDYLNWYQQKPGKAPKLLIYTASNLQNGVPSRFSGSGSGTDFTLTISSLQPEDFATYYCQQGFSNPWTFGQGTKVEIK
notes: IgG2
B4: IL1RL2-284 (antibody, V domains shown)
VH: EVQLLESGGGLVQPGGSLRLSCAASGFTFTSHAMSWVRQAPGKGLEWVSGISGSGANTYYADSVKGRFTISRDNSKNTLYLQMNSLRAEDTAVYYCARDGIVVVPAANHSYYYYYGMDVWGQGTLVTVSS
VL: DIQMTQSPSSLSASVGDRVTITCRASQSISVHLNWYQQKPGKAPKLLIYIASNLQSGVPSRFSGSGSGTDFTLTISSLQPEDFATYYCQQTYTTPYTFGGGTKVEIK
notes: IgG2
B5: IL1RL2-293 (antibody, V domains shown)
VH: EVQLLESGGGLVQPGGSLRLSCAASGFTISNYAMSWVRQAPGKGLEWVSGISGSGSSTFYADSVKGRFTISRDNSKNTLYLQMNSLRAEDTAVYYCAKPDSGQWWGVDQWGQGTLVTVSS
VL: B4 VL with S30G, V31N, H32Y, L33V, I50A, Q55E, S56D, T91S, T93N, Y96L
notes: IgG2
B6: IL1RL2-296 (antibody, V domains shown)
VH: EVQLLESGGGLVQPGGSLRLSCAASGFIFSNFAMSWVRQAPGKGLEWVSGISGSGSSTNYADSVKGRFTISRDNSKNTLYLQMNSLRAEDTAVYYCARGFWSGYYGMDVWGQGTLVTVSS
VL: B4 VL with Q27R, V31T, H32Y, I50A, N53S, L54S, T93A, Y96W
notes: IgG2
B7: IL1RL2-185 (antibody, V domains shown)
VH: EVQLLESGGGLVQPGGSLRLSCAASGFTFDKYLMSWVRQAPGKGLEWVSAISGRGDNTYYADSVKGRFTISRDNSKNTLYLQMNSLRAEDTAVYYCARGGDTYFDYFDYWGQGTLVTVSS
VL: DIQMTQSPSSLSASVGDRVTITCRASQSIRRFLNWYQQKPGKAPKLLIYQASSLQSGVPSRFSGSGSGTDFTLTISSLQPEDFATYYCQQSHSSPLTFGQGTKVEIK
notes: IgG2
B8: IL1RL2-301 (antibody, V domains shown)
VH: EVQLLESGGGLVQPGGSLRLSCAASGFPLSSYAMSWVRQAPGKGLEWVSLISGSGVSTYYADSVKGRFTISRDNSKNTLYLQMNSLRAEDTAVYYCARGWGAAEEWGQGTLVTVSS
VL: B4 VL with I29V, V31Y, H32Y, I50G, S52V, T91S, Y92H, T94I, G100Q
notes: IgG2
B9: IL1RL2-297 (antibody, V domains shown)
VH: EVQLLESGGGLVQPGGSLRLSCAASGFTFRSHAMSWVRQAPGKGLEWVSALSGSGGRTYYADSVKGRFTISRDNSKNTLYLQMNSLRAEDTAVYYCASSGAGVSDYWGQGTLVTVSS
VL: B7 VL with R30D, R31T, F32N, Q50A, S53N, S56H, H92S, S94I, Q100G
notes: IgG2
B10: IL1RL2-289 (antibody, V domains shown)
VH: EVQLLESGGGLVQPGGSLRLSCAASGFTFTKYAMSWVRQAPGKGLEWVSGISGSGGYTYYADSVKGRFTISRDNSKNTLYLQMNSLRAEDTAVYYCARGAGSPDYWGQGTLVTVSS
VL: DIQMTQSPSSLSASVGDRVTITCRASQNIRSYLNWYQQKPGKAPKLLIYATSNLQRGVPSRFSGSGSGTDFTLTISSLQPEDFATYYCQQSYRAPYIFGGGTKVEIK
notes: IgG2
B11: IL1RL2-173 (antibody, V domains shown)
VH: EVQLLESGGGLVQPGGSLRLSCAASGFTFSEYGMWWVRQAPGKGLEWVSEISPSGGYTYYADSVKGRFTISRDNSKNTLYLQMNSLRAEDTAVYYCAEQDVKGSSSFDYWGQGTLVTVSS
VL: DIQMTQSPSSLSASVGDRVTITCRPNQNIATYINWYQQKPGKAPKLLIYQMSHLASGVPSRFSGSGSGTDFTLTISSLQPEDFATYYCQQSYSTPSFGQGTKVEIK
notes: IgG2
B12: IL1RL2-181 (antibody, V domains shown)
VH: EVQLLESGGGLVQPGGSLRLSCAASGFTFGQESMYWVRQAPGKGLEWVSGITRSGSTNYRDSVKGRFTISRDNSKNTLYLQMNSLRAEDTAVYYCAKQLGEEFDYWGQGTLVTVSS
VL: DIQMTQSPSSLSASVGDRVTITCTGDKLAEKYVSWYQQKPGKAPKLLIYAKNNRPSGVPSRFSGSGSGTDFTLTISSLQPEDFATYYCQQWSSNPLTFGQGTKVEIK
notes: IgG2
B13: IL1RL2-295 (antibody, V domains shown)
VH: EVQLLESGGGLVQPGGSLRLSCAASGFSFTTYAMSWVRQAPGKGLEWVSGISGGGGSTYYADSVKGRFTISRDNSKNTLYLQMNSLRAEDTAVYYCAKLVLSNRGGVDYWGQGTLVTVSS
VL: DIQMTQSPSSLSASVGDRVTITCRASQSIRSHLNWYQQKPGKAPKLLIYRASTLQTGVPSRFSGSGSGTDFTLTISSLQPEDFATYYCQQSYSILPVTFGGGTKVEIK
notes: IgG2
B14: IL1RL2-178 (antibody, V domains shown)
VH: EVQLLESEGGLVQPGGSLRLSCAASGFTFSGYDMQWVRQAPGKGLEWVSSISSTGFKTYYADSVKGRFTISRDNSKNTLYLQMNSLRAEDTAVYYCAKAGPPFAGSRGNSFDYWGQGTLVTVSS
VL: DIQMTQSPSSLSASVGDRVTITCSGDNLRGYYASWYQQKPGKAPKLLIYGTSDLQSGVPSRFSGSGSGTDFTLTISSLQPEDFATYYCYSRDRSGNHLGMFGQGTKVEIK
notes: IgG2
B15: IL1RL2-170 (antibody, V domains shown)
VH: EVQLLESGGGLVQPGGSLRLSCAASGFTFPVYNMAWVRQAPGKGLEWVSSISGYGSTTYYADSVKGRFTISRDNSKNTLYLQMNSLRAEDTAVYYCAKSYGAFDYWGQGTLVTVSS
VL: DIQMTQSPSSLSASVGDRVTITCSASQDINKYLNWYQQKPGKAPKLLIYHTSRLQDGVPSRFSGSGSGTDFTLTISSLQPEDFATYYCQQSYTTPWTFGQGTKVEIK
notes: IgG2
B16: IL1RL2-283 (antibody, V domains shown)
VH: EVQLLESGGGLVQPGGSLRLSCAASGFAFRSYAMSWVRQAPGKGLEWVSAITGSGTSTYYADSVKGRFTISRDNSKNTLYLQMNSLRAEDTAVYYCARDILWNYRVADYWGQGTLVTVSS
VL: DIQMTQSPSSLSASVGDRVTITCRASLSISRYLNWYQQKPGKAPKLLIYTASSLHSGVPSRFSGSGSGTDFTLTISSLQPEDFATYYCQQSYRTPPWTFGGGTKVEIK
notes: IgG2
B17: IL1RL2-290 (antibody, V domains shown)
VH: B16 VH with R105H
VL: B16 VL
notes: IgG2
B18: IL1RL2-292 (antibody, V domains shown)
VH: EVQLLESGGGLVQPGGSLRLSCAASGLTFNNYAMSWVRQAPGKGLEWVSGISGSSGNTYYVDSVKGRFTISRDNSKNTLYLQMNSLRAEDTAVYYCARGPNHGMFDAWGQGTLVTVSS
VL: DIQMTQSPSSLSASVGDRVTITCRASQSIGYYLNWYQQKPGKAPKLLIYSATSLQSGVPSRFSGSGSGTDFTLTISSLQPEDFATYYCQHRGTFGGGTKVEIK
notes: IgG2
B19: IL1RL2-176 (antibody, V domains shown)
VH: EVQLLESGGGLVQPGGSLRLSCAASGFTFSNSYISWVRQAPGKGLEWVSSIRGSSSSTYYADSVKGRFTISRDNSKNTLYLQMNSLRAEDTAVYYCARSYGGGFDYWGQGTLVTVSS
VL: DIQMTQSPSSLSASVGDRVTITCSGDNLRGYYASWYQQKPGKAPKLLIYQNDKRPSGVPSRFSGSGSGTDFTLTISSLQPEDFATYYCFQGSHAPLTFGQGTKVEIK
notes: IgG2

Changes are numbered by the printed parent chain.

The first test deals with T1, CD40L. Nature of the test: flow cytometry, 100 nM IgG, CD40L over-expressing Expi293 cells over parent Expi293 cells. For orientation: In flow cytometry, cells or beads pass a laser one at a time.
Protocol: (§1) All incubations and washes were in buffer containing PBS+1% BSA. MFI Ratio is defined by the mean fluorescence intensity (MFI) of the cytokine over-expressing Expi293 cell over the Expi293 parent cell. […] EC50 was calculated in GraphPad Prism.
Regarding B1, the “100 nM FACS (MFI Ratio)” value was found to be 6.6 MFI ratio.

For the molecule B2, the “100 nM FACS (MFI Ratio)” value was 11.9 MFI ratio.

For the next test, the target named is T2, IL1RL2 over-expressed on Expi293 cells. Nature of the test: flow cytometry, over-expressing Expi293 vs parent cells, 100 nM antibody.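 Further: ratio is mean fluorescence intensity on over-expressing Expi293 cells divided by that measured on parental Expi293 cells.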
Protocol: as §1
Take B3: the “100 nM FACS (MFI Ratio)” value was determined as 3.19.

B4: the “100 nM FACS (MFI Ratio)” value was 8.71.

Consider B5, for which the “100 nM FACS (MFI Ratio)” value was determined as 10.2.

In the case of B6, the “100 nM FACS (MFI Ratio)” value amounted to 19.9.

Take B7: the “100 nM FACS (MFI Ratio)” value is 205.

B8: the “100 nM FACS (MFI Ratio)” value is 11.7.

As to B9, the “100 nM FACS (MFI Ratio)” value is 7.44.

Regarding B10, the “100 nM FACS (MFI Ratio)” value was found to be 5.31.

On to B11, for which the “100 nM FACS (MFI Ratio)” value amounted to 11.2.

On to B12, for which the “100 nM FACS (MFI Ratio)” value was determined as 1.02.

On to B13, for which the “100 nM FACS (MFI Ratio)” value was determined as 3.07.

Regarding B14, the “100 nM FACS (MFI Ratio)” value was 37.

B15: the “100 nM FACS (MFI Ratio)” value amounted to 3.95.

Turning to B16, the “100 nM FACS (MFI Ratio)” value was 3.98.

With B17, the “100 nM FACS (MFI Ratio)” value is 8.4.

In the case of B18, the “100 nM FACS (MFI Ratio)” value came out at 11.7.

In the case of B19, the “100 nM FACS (MFI Ratio)” value amounted to 0.72.
